Legend:
Conditions in all cases: both partners purified
[1] = biological target: T1, Full-length Hsc70-T204A (ATPase deficient mutant) (human, UniProt P11142 1-646, T204A); experiment: NMR 15N-CPMG relaxation dispersion and exchange-induced shifts; 15N-labelled JDP observed, unlabelled Hsc70-T204A added to a molar ratio of 0.1 (DNAJB6 JD-GF 200 uM, DNAJB6 JD 350 uM, DNAJB1 300 uM); 25 °C; 20 mM HEPES pH 7.0, 50 mM KCl, 2.5 mM MgCl2; ATP-regenerating system with 2.5 mM ATP; fit to a two-state binding model
T1 construct: Hsc70, the constitutively expressed cytosolic form of human Hsp70; full length with the ATPase-deficient mutation T204A; source: pET-15b vector, expression at 25 °C overnight, purified (StrepTactin, TEV cleavage, Superdex 200)

[2] = biological target: T1, Full-length Hsc70-T204A (ATPase …); experiment: fluorescence polarisation; direct binding: Hsc70-T204A titrated into 300 nM fluorescein-labelled DNAJB6 JD; 25 °C; 20 mM HEPES pH 7.0, 50 mM KCl, 5 mM MgCl2, 5 mM ATP; four-point logistic fit, 1:1 model
[3] = biological target: T2, Full-length Hsc70-T204A (ATPase deficient mutant) (human, UniProt P11142 1-646, T204A); experiment: NMR 15N-CPMG relaxation dispersion with exchange-induced shifts; 15N-labelled JDP (DNAJB6 JD-GF 200 μM, DNAJB6 JD 350 μM, DNAJB1 300 μM) with unlabelled Hsc70-T204A at a molar ratio of 0.1, ATP-regenerating system, 20 mM HEPES pH 7.0, 50 mM KCl, 2.5 mM MgCl2, 25 °C, 600, 800 and 950 MHz; fit to a 2-state model; kex = kon app + koff
T2 construct: Hsc70, the constitutively expressed cytosolic form of human Hsp70, full length, with T204A; 5 mM ATP in fluorescence polarisation; also called hydrolysis deficient Hsc70 mutant T204A; source: pET-15b vector, expressed at 25 °C overnight, purified (StrepTactin, TEV cleavage, Superdex 200)

B1: DNAJB6 JD (domain or fragment)
chain: not shown
notes: DNAJB6, construct truncated immediately after the J-domain; 15N-labelled for NMR; also called isolated JD of DNAJB6; DNAJB6 J-domain; source: E. coli BL21(DE3), purified (HisTrap, TEV cleavage, C18 reverse phase HPLC); not shown: His-tag, N-terminal, cleaved
A Kd [1] of 3.4 ± 1.1 µM, a koff [1] of 2740 ± 51 s⁻¹ and a kon [1] of 8e+08 M⁻¹ s⁻¹ were found for B1 in this work.

B2: DNAJB1 JD-GF (domain or fragment)
chain: not shown
modifications: 15N-labelled; limits by convention: ends just before helix 5 (DNAJB6 helix 5 is 96-104, and DNAJB6 F91 aligns with DNAJB1 Y92, giving about 97-105); start as in PDB 6Z5N
A Kd [1] of 288 ± 13 µM, a koff [1] of 1700 ± 40 s⁻¹ and a kon [1] of 5.91e+06 M⁻¹ s⁻¹ were found for B2 in this work.

B3: DNAJB1 JD (domain or fragment)
chain: not shown
notes: DNAJB1, construct truncated immediately after the J-domain; also called DNAJB1 1-67; JD of DNAJB1; source: E. coli BL21(DE3), purified (HisTrap, TEV cleavage, C18 reverse phase HPLC); not shown: His-tag, N-terminal, cleaved
A Kd [1] of about 450 µM was found for B3 in this work.

B4: Fluorescently labelled DNAJB6 JD (with an additional C-terminal GSSC sequence) (domain or fragment)
chain: not shown
modifications: Fluorescein-5-Maleimide on the C-terminal cysteine
notes: DNAJB6 J-domain construct; not shown: His-tag, N-terminal, cleaved
A Kd [2] of 18 ± 6.5 µM was found for B4 in this work.

B5: DNAJB1 JD-GF (domain or fragment)
chain: not shown
modifications: 15N-labelled; limits by convention: ends just before helix 5 (DNAJB6 helix 5 is 96-104, and DNAJB6 F91 aligns with DNAJB1 Y92, giving about 97-105); start as in PDB 6Z5N
A Kd [3] of about 300 µM was found for B5 in this work.

From paper PMC12126530, “A low-complexity linker as a driver of intra- and intermolecular interactions in DNAJB chaperones” (Nature Communications, 2025)
